Assay results as given in article PMC8101287 (2020).
Several values for one entry are separate records, joined by “and”; a condition that tells them apart may be missing. Equal values may be shown once. Read-outs that look alike come from different tables or passages of the source.

Columns and labels:
[1] = biological target: T1, HLA‐DR1 (HLA‐DRA1*01:01/HLA‐DRB*01:01) complexed with the HA_(306‐318) peptide, refolded from E. coli (human | ); test: SPR
[2] = biological target: T1, HLA‐DR1 (HLA‐DRA1*01:01/HLA‐DRB*01:01) …; test: SPR; remark: listed apart in the source

B1: LAG‐3:Fc fusion protein (four extracellular domains of LAG‐3 and the Fc domain of IgG) (Fc fusion)
chain: LQPGAEVPVVWAQEGAPAQLPCSPTIPLQDLSLLRRAGVTWQHQPDSGPPAAAPGHPLAPGPHPAAPSSWGPRPRRYTVLSVGPGGLRSGRLPLQPRVQLDERGRQRGDFSLWLRPARRADAGEYRAAVHLRDRALSCRLRLRLGQASMTASPPGSLRASDWVILNCSFSRPDRPASVHWFRNRGQGRVPVRESPHHHLAESFLFLPQVSPMDSGPWGCILTYRDGFNVSIMYNLTVLGLEPPTPLTVYAGAGSRVGLPCRLPAGVGTRSFLTAKWTPPGGGPDLLVTGDNGDFTLRLEDVSQAQAGTYTCHIHLQEQQLNATVTLAIITVTPKSFGSPGSLGKLLCEVTPVSGQERFVWSSLDTPSQRSFSGPWLEAQEAQLLSQPWQCQLYQGERLLGAAVYFTELSSPGAQRSGRAPGALPAGHL
In the case of B1, the Kd [1] is reported as 7300 nM and the Kd [2] is reported as 3000 nM and 1000 nM.
